Experimental data published in patent publication US20190330316A1 (PROTHENA BIOSCIENCES, published 2019).
Ends that are not written are not given here.

Legend:
[1] = molecular target: T1, biotinylated peptide spanning amino acid residues 55-69 of SEQ ID NO:3 (human, also: biotinylated, position not given here); experiment: ELISA, biotinylated peptides on streptavidin plate
T1 peptide: SLEDEAAGHVTQARM
Experimental: (§1) A range of overlapping biotinylated peptides spanning the entire 383aa 4RON human tau protein were used for mapping the murine 16G7 antibody. Additional peptides were used to model potential post-translational modifications of the C- and N-terminal ends of the protein.
(§2) Biotinylated peptides were bound to separate wells of a streptavidin-coated ELISA plate. The plate was blocked and treated with murine 16G7, followed by incubation with a horseradish peroxidase-conjugated anti-mouse antibody. After thorough washing, OPD was applied to the plate and allowed to develop. The plate was read at 450 nm absorbance. Background subtraction was performed with absorbance values from wells containing no primary antibody, and a threshold for positive binding was set to 0.2 absorbance units.

[2] = molecular target: T2, biotinylated peptide spanning amino acid residues 64-78 of SEQ ID NO:3 (human, also: biotinylated, position not given here); experiment: ELISA, biotinylated peptides on streptavidin plate
T2 peptide: VTQARMVSKSKDGTG
Experimental: as §1, §2

[3] = molecular target: T3, 4R0N human tau (383 amino acids) (human, UniProt P10636 1-758, radio-iodinated (125I) in the precipitation screen); experiment: precipitation of 125I-labeled tau by hybridoma supernatants
T3 construct: Purified from SF9 cells infected with a tau baculovirus construct; also called 4RON human tau; 4R0N tau
T3 sequence (P10636 other isoform, or with tags, fused parts or gaps limits assumed): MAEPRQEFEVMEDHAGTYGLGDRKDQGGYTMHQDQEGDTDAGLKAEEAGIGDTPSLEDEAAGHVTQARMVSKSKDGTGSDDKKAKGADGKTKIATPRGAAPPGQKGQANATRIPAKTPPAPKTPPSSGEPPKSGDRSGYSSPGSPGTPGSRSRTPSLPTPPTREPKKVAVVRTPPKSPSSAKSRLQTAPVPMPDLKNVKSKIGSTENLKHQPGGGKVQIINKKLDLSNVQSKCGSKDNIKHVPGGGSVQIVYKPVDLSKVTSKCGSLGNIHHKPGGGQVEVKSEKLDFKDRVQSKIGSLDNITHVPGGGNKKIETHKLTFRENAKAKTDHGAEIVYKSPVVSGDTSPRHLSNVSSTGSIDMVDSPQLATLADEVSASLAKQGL
Experimental: Monoclonal antibody 16G7 was prepared according to a modification of the method of Kohler and Milstein (G. Kohler and C. Milstein (1975) Nature 256:495-497). Human tau containing all 4 microtubule binding repeats, and lacking the N-terminal splice variants (4R0N tau, 383 amino acids) was used in all injections and screening assays. Tau was purified from SF9 cells infected with a tau-containing baculovirus construct (J. Knops et al. (1991) J Cell Biol 115(5):725-33). Six week old ALI mice were injected with 100 μg of purified tau at two week intervals. Tau was emulsified in complete Freund's adjuvant for the first immunization and in incomplete Freund's adjuvant for all subsequent immunizations. Serum samples were taken three days after the third injection to assess the titer of these animals. The highest titer mouse was injected intravenously with 100 μg of tau in 500 μL of PBS two weeks after receiving its third injection. The myeloma fusion occurred three days later using SP2/0 as the fusion partner. Supernatants from wells containing hybridoma cells were screened for their ability to precipitate ¹²⁵I-labeled tau. Tau was radio-iodinated using immobilized glucose oxidase and lactoperoxidase according to the manufacturer's instructions (Bio-Rad). […] The isotypes of 16G7 was determined to be gamma 1 kappa.

binding result [1]: binds | binding result [2]: binds | binding result [3]: binds
B1: murine 16G7 monoclonal antibody (antibody, V domains shown)
VH: QVQLQQPGSVLVRPGASVKLSCKASGYTFTSSWIHWAKQRPGQGLEWIGEIYPNSGNTNYNEKFKGKATLTVDISSSTAYVDLTSLTSEDSAVYYCARLGWLIPLDYWGQGTTLIVSS
VL: DIVLSQSPSSLAVSVGEKVTMSCKSSQSLLDGNDQKNYLAWYQQKPGQSPKLLMYWASTRESGVPDRFTGSGSGTDFTLTISSLKAEDLAVYYCQQFYDYPWTFGGGTKLEIKR
notes: also called mouse 16G7; m16G7
